According to US20220098265A1 (MEDIMMUNE LIMITED, priority 2012, published 2022):
Changes are numbered by the printed parent chain. Read-outs that look alike come from different tables or passages of the source. Numbered stars: 1 amine (or outer) side, 2 acyl side, 3 side chain; on linkers, the order of the positions; unused ones are H or OH. Side chains are listed from the residue outwards. Ends that are not written are not given here. Peptide text beside a SMILES is read from it. * marks the point of attachment. γGlu = O=C(O)[C@H](CCC(=O)[*:2])N[*:1]; Palmitoyl = CCCCCCCCCCCCCCCC(=O)*

What was measured:
Human GlucR = Human GlucR (Homo sapiens, UniProt P47871); settings: read-out: hGlucR EC50; assay 1; additional peptides (Table 4)
Experimental: All sample dilutions were made in duplicate.
A frozen cryo-vial of cells expressing the receptor of interest was thawed rapidly in a water-bath, transferred to pre-warmed assay media and spun at 240×g for 5 minutes. Cells were re-suspended in assay media at an optimised concentration (e.g. hGCGR cells at 1×10^5 cells/ml, hGLP-1R and hGIPR cells at 0.5×10^5 cells/ml).
To this, 5 μL cell suspension was added and the plates incubated at room temperature for 30 minutes.
cAMP levels were measured using a commercially available cAMP dynamic 2 HTRF kit (Cisbio, Cat #62AM4PEJ), following the two step protocol as per manufacturer's recommendations. In brief; anti-cAMP cryptate (donor fluorophore) and cAMP-d2 (acceptor fluorophore) were made up separately by diluting each 1/20 in conjugate & lysis buffer provided in the kit. 5 μL anti-cAMP cryptate was added to all wells of the assay plate, and 5 μL cAMP-d2 added to all wells except non-specific binding (NSB) wells, to which conjugate and lysis buffer was added.

[1] = frozen blank plasma from rat; settings: 37° C, up to 48 hours
human glucagon receptor [2] = target: T1, human glucagon receptor (human, UniProt P47871 26-477); experiment: cell-based or functional assay
human GLP-1 receptor [3] = target: T2, human GLP-1 receptor (human, UniProt P43220 24-463); experiment: cell-based or functional assay
[4] = target: T3, human glucose-dependent insulinotropic peptide (gastric inhibitory polypeptide) receptor (human, UniProt P48546 22-466); experiment: cell-based or functional assay
T3 sequence (looked up): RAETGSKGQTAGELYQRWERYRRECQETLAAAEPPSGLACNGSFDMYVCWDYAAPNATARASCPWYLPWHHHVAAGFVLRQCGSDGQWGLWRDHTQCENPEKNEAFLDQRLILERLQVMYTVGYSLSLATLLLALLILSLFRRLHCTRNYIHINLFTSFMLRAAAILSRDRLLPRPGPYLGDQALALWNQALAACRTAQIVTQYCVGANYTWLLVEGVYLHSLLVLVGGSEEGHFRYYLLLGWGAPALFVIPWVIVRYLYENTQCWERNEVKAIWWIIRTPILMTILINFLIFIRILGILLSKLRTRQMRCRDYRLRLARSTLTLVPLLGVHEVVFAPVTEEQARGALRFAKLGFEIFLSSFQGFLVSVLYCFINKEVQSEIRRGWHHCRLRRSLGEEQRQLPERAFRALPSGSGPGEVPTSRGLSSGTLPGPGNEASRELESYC

human glucagon receptor [5] = target: T1, human glucagon receptor; experiment: cell-based or functional assay; remark: listed apart in the source
human GLP-1 receptor [6] = target: T2, human GLP-1 receptor; experiment: cell-based or functional assay; remark: listed apart in the source
[7] = target: T3, human glucose-dependent insulinotropic …; experiment: cell-based or functional assay; remark: listed apart in the source
human glucagon receptor [8] = target: T1, human glucagon receptor; experiment: cell-based or functional assay; remark: listed apart in the source
human GLP-1 receptor [9] = target: T2, human GLP-1 receptor; experiment: cell-based or functional assay; remark: listed apart in the source
[10] = target: T3, human glucose-dependent insulinotropic …; experiment: cell-based or functional assay; remark: listed apart in the source
human glucagon receptor [11] = target: T1, human glucagon receptor; experiment: cell-based or functional assay; remark: listed apart in the source
human GLP-1 receptor [12] = target: T2, human GLP-1 receptor; experiment: cell-based or functional assay; remark: listed apart in the source
mouse GLP-1 receptor = target: T4, mouse GLP-1 receptor (mouse, UniProt O35659 22-463); experiment: cell-based or functional assay
T4 sequence (looked up): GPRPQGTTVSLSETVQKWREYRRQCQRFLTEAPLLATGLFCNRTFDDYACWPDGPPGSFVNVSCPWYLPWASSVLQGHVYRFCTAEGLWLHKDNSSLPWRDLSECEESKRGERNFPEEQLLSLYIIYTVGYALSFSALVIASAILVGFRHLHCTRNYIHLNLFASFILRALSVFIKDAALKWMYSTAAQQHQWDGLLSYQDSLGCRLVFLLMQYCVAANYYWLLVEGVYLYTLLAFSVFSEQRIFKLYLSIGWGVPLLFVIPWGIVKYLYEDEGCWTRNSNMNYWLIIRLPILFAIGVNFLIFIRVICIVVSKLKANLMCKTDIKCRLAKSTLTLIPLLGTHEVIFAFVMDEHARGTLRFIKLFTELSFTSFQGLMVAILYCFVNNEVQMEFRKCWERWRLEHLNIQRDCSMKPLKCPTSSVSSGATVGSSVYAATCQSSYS

mouse glucagon receptor = mouse glucagon receptor (mouse, UniProt Q61606 27-485); experiment: cell-based or functional assay
human serum albumin = human serum albumin (Homo sapiens, UniProt P02768); experiment: calculated from the variation in cAMP generation with the HSA concentration (assay 2)
Chain of human serum albumin (P02768 25-609 limits assumed): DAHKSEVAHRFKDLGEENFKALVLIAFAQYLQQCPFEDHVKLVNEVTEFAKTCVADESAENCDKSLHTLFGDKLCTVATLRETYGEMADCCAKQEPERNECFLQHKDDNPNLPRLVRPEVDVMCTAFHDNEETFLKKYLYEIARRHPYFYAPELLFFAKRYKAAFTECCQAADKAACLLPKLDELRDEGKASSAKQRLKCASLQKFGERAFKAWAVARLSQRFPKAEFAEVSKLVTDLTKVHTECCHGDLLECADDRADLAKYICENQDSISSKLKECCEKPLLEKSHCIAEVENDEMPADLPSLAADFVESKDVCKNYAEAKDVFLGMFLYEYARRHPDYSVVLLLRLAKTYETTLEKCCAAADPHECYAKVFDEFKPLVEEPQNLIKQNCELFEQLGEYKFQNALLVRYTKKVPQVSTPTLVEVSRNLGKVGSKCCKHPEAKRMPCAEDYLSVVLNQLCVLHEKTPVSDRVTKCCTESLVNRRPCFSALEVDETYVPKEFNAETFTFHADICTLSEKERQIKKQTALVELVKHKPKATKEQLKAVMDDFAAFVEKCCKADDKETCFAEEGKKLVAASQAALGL

T1 sequence (P47871 26-477): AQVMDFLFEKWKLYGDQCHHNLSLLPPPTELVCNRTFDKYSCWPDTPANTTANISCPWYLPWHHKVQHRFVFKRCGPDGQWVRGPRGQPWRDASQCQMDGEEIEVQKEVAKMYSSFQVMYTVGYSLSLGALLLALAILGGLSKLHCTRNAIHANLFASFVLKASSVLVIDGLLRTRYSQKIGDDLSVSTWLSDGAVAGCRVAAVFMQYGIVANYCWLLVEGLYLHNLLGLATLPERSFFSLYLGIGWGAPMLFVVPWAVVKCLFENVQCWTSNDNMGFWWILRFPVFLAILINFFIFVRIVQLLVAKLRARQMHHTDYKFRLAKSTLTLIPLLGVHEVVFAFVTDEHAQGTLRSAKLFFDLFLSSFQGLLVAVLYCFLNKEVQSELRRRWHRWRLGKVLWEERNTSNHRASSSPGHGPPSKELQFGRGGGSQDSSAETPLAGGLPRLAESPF
Chain of Human GlucR (P47871 26-477): as above
Chain of mouse glucagon receptor (Q61606 27-485): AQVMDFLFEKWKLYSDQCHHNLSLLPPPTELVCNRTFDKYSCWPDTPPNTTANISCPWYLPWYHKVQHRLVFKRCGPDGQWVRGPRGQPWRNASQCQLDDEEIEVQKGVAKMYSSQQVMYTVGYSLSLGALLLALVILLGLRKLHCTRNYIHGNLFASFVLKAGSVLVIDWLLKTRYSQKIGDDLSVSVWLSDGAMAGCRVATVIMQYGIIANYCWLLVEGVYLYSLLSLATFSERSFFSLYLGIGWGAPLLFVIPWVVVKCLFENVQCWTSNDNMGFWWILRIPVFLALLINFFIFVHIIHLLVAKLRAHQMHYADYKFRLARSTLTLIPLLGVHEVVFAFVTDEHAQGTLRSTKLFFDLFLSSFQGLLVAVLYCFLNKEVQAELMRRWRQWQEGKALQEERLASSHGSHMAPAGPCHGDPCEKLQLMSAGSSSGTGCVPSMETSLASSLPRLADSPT

## CC(C)C[C@H](NC(=O)[C@H](Cc1ccc(O)cc1)NC(=O)[C@H](CCCCN)NC(=O)[C@H](CO)NC(=O)[C@H](Cc1ccc(O)cc1)NC(=O)[C@H](CC(=O)O)NC(=O)[C@H](CO)NC(=O)[C@@H](NC(=O)[C@H](Cc1ccccc1)NC(=O)[C@@H](NC(=O)CNC(=O)[C@H](CCC(N)=O)NC(=O)[C@H](CO)NC(=O)[C@@H](N)Cc1c[nH]cn1)[C@@H](C)O)[C@@H](C)O)C(=O)N[C@@H](CC(=O)O)C(=O)N[C@@H](CO)C(=O)N[C@@H](CCCNC(=N)N)C(=O)N[C@@H](CCCNC(=N)N)C(=O)N[C@@H](C)C(=O)N[C@@H](CCC(N)=O)C(=O)N[C@@H](CC(=O)O)C(=O)N[C@@H](Cc1ccccc1)C(=O)N[C@H](C(=O)N[C@@H](CCC(N)=O)C(=O)N[C@@H](Cc1c[nH]c2ccccc12)C(=O)N[C@@H](CC(C)C)C(=O)N[C@H](C(=O)N[C@@H](C)C(=O)NCC(=O)NCC(=O)N1CCC[C@H]1C(=O)N[C@@H](CO)C(=O)N[C@@H](CO)C(=O)NCC(=O)N[C@@H](C)C(=O)N1CCC[C@H]1C(=O)N1CCC[C@H]1C(=O)N1CCC[C@H]1C(=O)N[C@@H](CO)C(=O)N[C@@H](CCCCN)C(N)=O)C(C)C)C(C)C [g319] (H-HSQGTFTSDYSKYLDSRRAQDFVQWLVAGGPSSGAPPPSK-NH2; N-terminus assumed)
Human GlucR
  EC50: 0.0104 nM

## CCCCCCCCCCCCCCCC(=O)N[C@@H](CCC(=O)NCCCC[C@H](NC(=O)[C@H](CO)NC(=O)[C@H](CC(=O)O)NC(=O)[C@H](CC(C)C)NC(=O)[C@H](Cc1ccc(O)cc1)NC(=O)[C@H](CCCCN)NC(=O)[C@H](CO)NC(=O)[C@H](Cc1ccc(O)cc1)NC(=O)[C@H](CC(=O)O)NC(=O)[C@H](CO)NC(=O)[C@@H](NC(=O)[C@H](Cc1ccccc1)NC(=O)[C@@H](NC(=O)CNC(=O)[C@H](CCC(N)=O)NC(=O)CNC(=O)[C@@H](N)Cc1c[nH]cn1)[C@@H](C)O)[C@@H](C)O)C(=O)N[C@@H](CCCNC(=N)N)C(=O)N[C@@H](C)C(=O)N[C@@H](C)C(=O)N[C@@H](CC(=O)O)C(=O)N[C@@H](Cc1ccccc1)C(=O)N[C@H](C(=O)N[C@@H](C)C(=O)N[C@@H](Cc1c[nH]c2ccccc12)C(=O)N[C@@H](CC(C)C)C(=O)N[C@H](C(=O)N[C@@H](C)C(=O)NCC(=O)NCC(N)=O)C(C)C)C(C)C)C(=O)O [g736] (H-HGQGTFTSDYSKYLDSK([γGlu-Palmitoyl])RAADFVAWLVAGG-NH2; N-terminus assumed)
Human GlucR
  EC50: 0.92 nM

## HSQGTFTSDXSRYLDSRSARDFVAWLEAGG-amide X10 = K(gE-palm)
[1]
  fragment found: DPP IV-cleavage product

B1: G934 (peptide)
peptide: HSQGTFTSDK([γGlu-Palmitoyl])SKYLEGQAAKEFIAWLEKGR-OH
Human glucagon receptor [2]
  cAMP EC50 (assay 1): 0.0063 nM
Human GLP-1 receptor [3]
  cAMP EC50 (assay 1): 0.018 nM
[4]
  cAMP EC50 (assay 1): 3.6 nM

B2: G973 (peptide)
peptide: HSQGTFTSDXSSYLDSRSARDFVAWLEAGG
modifications: X10 = K(gE-palm); C-terminal acid
Human glucagon receptor [2]
  cAMP EC50 (assay 1): 0.0089 nM
Human GLP-1 receptor [3]
  cAMP EC50 (assay 1): 0.012 nM
[4]
  cAMP EC50 (assay 1): 47 nM

B3: G380 (peptide)
peptide: HGQGTFTSDYSKYLDSKRAQDFVQWLVAGG
modifications: X17 = K(gE-palm); C-terminal amide
Human glucagon receptor [5]
  cAMP EC50 (assay 1): 0.217 nM
Human GLP-1 receptor [6]
  cAMP EC50 (assay 1): 0.077 nM
[7]
  cAMP EC50 (assay 1): 130 nM
Human glucagon receptor [8]
  cAMP EC50 (assay 1): 0.362 nM
Human GLP-1 receptor [9]
  cAMP EC50 (assay 1): 0.1 nM
[10]
  cAMP EC50 (assay 1): 609 nM
Human glucagon receptor [11]
  cAMP EC50 (assay 2, 4.4% human serum albumin): 53.6 nM
Human GLP-1 receptor [12]
  cAMP EC50 (assay 2, 4.4% human serum albumin): 6.54 nM
Mouse GLP-1 receptor
  cAMP EC50 (assay 2, 3.2% mouse serum albumin): 15 nM
Mouse glucagon receptor
  cAMP EC50 (assay 2, 3.2% mouse serum albumin): 576 nM

B4: G849 (peptide)
peptide: B2 peptide with X10K, S12R
modifications: X10 = K(gE-palm); C-terminal amide
[7]
  cAMP EC50 (assay 1): 17 nM
Human GLP-1 receptor [9]
  cAMP EC50 (assay 1): 0.00907 nM
Human serum albumin
  free peptide at 4.4% HSA: 0.48%
